Data from PMC4104028.

Tests used:
[1] = target: endogenous Atg16L1 (HEK293A) (UniProt Q676U5); test: GFP-Trap, immunoblot quantification; settings: parent: est. 0.49; read off a plot
[2] = target: FLAG-Atg16L1 E226R, Q8C0J2-3; test: GFP-Trap co-immunoprecipitation from mixed lysates, immunoblot quantification; settings: parent: est. 2.5; read off a plot
[3] = target: FLAG-Atg16L1 E226R E230R (ERER), Q8C0J2-3; test: as above; settings: parent: est. 2.5; read off a plot
[4] = target: FLAG-Atg16L1 E230R, Q8C0J2-3; test: as above; settings: parent: est. 2.5; read off a plot
FLAG-Atg16L1 E230R, Q8C0J2-3, sequence (Q8C0J2 other isoform, or with tags, fused parts or gaps E230R | E230R): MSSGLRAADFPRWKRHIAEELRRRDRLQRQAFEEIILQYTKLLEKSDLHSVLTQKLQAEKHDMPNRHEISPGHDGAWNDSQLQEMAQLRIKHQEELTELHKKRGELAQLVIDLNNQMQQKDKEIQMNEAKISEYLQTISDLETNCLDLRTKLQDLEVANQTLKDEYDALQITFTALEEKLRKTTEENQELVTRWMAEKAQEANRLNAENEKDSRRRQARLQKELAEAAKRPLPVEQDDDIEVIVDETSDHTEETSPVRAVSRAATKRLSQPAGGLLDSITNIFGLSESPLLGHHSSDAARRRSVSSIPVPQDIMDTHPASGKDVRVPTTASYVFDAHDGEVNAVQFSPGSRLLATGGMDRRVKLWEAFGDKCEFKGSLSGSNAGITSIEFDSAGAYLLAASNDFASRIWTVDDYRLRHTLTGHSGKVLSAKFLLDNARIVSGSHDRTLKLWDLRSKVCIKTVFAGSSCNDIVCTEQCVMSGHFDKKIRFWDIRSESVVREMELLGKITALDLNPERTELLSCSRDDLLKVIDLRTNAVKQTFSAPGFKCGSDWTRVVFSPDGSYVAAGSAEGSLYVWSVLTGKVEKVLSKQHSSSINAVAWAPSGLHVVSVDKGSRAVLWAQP

FLAG-Atg16L1 E226R, Q8C0J2-3, sequence (Q8C0J2 other isoform, or with tags, fused parts or gaps E226R | E226R): as the sequence (Q8C0J2 other isoform, or with tags, fused parts or gaps E230R | E230R) above, with E226R, R230E counted along it
FLAG-Atg16L1 E226R E230R (ERER), Q8C0J2-3, sequence (Q8C0J2 other isoform, or with tags, fused parts or gaps E226R | E230R | E226R E230R): as the sequence (Q8C0J2 other isoform, or with tags, fused parts or gaps E230R | E230R) above, with E226R counted along it
endogenous Atg16L1 (HEK293A), sequence (Q676U5 whole entry): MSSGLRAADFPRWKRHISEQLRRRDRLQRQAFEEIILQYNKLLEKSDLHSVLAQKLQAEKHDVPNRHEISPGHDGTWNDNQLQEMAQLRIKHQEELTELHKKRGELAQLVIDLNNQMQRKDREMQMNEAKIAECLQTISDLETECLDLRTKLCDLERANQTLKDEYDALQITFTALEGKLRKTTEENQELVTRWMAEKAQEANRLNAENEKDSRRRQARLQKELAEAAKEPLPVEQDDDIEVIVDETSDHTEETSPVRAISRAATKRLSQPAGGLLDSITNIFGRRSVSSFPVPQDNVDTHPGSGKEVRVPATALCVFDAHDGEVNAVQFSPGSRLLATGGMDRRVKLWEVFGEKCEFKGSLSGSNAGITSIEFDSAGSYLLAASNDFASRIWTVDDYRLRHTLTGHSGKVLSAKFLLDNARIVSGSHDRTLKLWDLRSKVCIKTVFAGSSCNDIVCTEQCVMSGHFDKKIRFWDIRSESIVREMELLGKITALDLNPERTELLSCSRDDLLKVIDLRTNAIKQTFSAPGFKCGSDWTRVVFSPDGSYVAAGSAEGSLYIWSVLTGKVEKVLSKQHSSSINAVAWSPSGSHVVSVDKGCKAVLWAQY

| Substance | response [2] | response [3] | response [4] | also measured |
| --- | --- | --- | --- | --- |
| GFP-WIPI2b FRRG to FTTG |  |  |  | response [1]: 0.79 |
| m1; m3 WIPI2b:R108E; Atg16L1:E226R | 0.05 |  |  |  |
| m1; m3 WIPI2b:R108E; Atg16L1:E226R; Atg16L1:E230R |  | 0.13 |  |  |
| m1; m3 WIPI2b:R108E; Atg16L1:E230R |  |  | 0.87 |  |
| m1; m3 WIPI2b:R108E; WIPI2b:R125E; Atg16L1:E226R | 0.04 |  |  |  |
| m1; m3 WIPI2b:R108E; WIPI2b:R125E; Atg16L1:E226R; Atg16L1:E230R |  | 0.04 |  |  |
| m1; m3 WIPI2b:R108E; WIPI2b:R125E; Atg16L1:E230R |  |  | 0.05 |  |
| m1; m3 WIPI2b:R125E; Atg16L1:E226R | 0.05 |  |  |  |
| m1; m3 WIPI2b:R125E; Atg16L1:E226R; Atg16L1:E230R |  | 0.23 |  |  |
| m1; m3 WIPI2b:R125E; Atg16L1:E230R |  |  | 0.04 |  |
